Source: the nanobody polyreactivity screen of Harvey et al. (2022)

assay: yeast display, Sf9 membrane polyspecificity reagent, FACS + sequencing; frameworks hold sequencing errors
How it was run: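 Galactose induction of a Saccharomyces cerevisiae BJ5465 synthetic nanobody display library ran 36–48 hours. The cells were then stained for 1 hour at 4 °C with 10% biotinylated, detergent-solubilized Sf9 membrane reagent, pulled down on streptavidin microbeads and FACS-sorted into low and high (top ~1%) gates on expression and reagent-binding fluorescence. Labels for polyreactivity follow the gate of origin.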

Sequence	polyreactivity (PSR sort gate)
QVQLVESWGGLVQAGGSLRLSCAASGSIFDFNGMGCYRQAPGKERELVAAISGGGGSTYYADSVKGRFTISRDNAKNTVYLQMNSLKPEDTAVYYCAAAYSTYRFIYEYWGQATQVTVSS	high polyreactivity
QVQLVESWGGLVQAGGSLRLSCAASGSIFRRYAMGWYRQAPGKERELVAAISIGGRTYYADSVKGRFTISRDNAKNTVYFQMNSLKPEDTAVYYCAARESRSWGGGSWGQGTQVTVSS	high polyreactivity
QVQLVESWGGLVQAGGSLRLSCAASGSIFYVNDMGWYRQAPGKERELVAAISSTGSTKYADSVKGRFTISRDNAKNTVYLQMNSLKPEDTAVSYCAKEPGHRFEFDYWGQGTQVTVSS	low polyreactivity
QVQLVESWGGLVQAGGSLRLSCAASGSTFAQNTMGWYRQAPGKERELVATISDGGGSTYYADSVKGRFTISRDNAKNTVYLQMNSLKPEDTAVYYCNTDRFWPSYYWGQGTQVTVSS	low polyreactivity
QVQLVESWGGLVQAGGSLRLSCAASGSTFGKYAMGWYRQAPGKERELVAAISYRGGRTFYADSVKGRFTISRDNAKNTVYLQMNSLKPEDTAVYYCAAYPGVSRGTGPRRYDYWGQGTQVTVSS	high polyreactivity
QVQLVESWGGLVQAGGSLRLSCAASGSTFSPYAMGWYRQAPGKEREMVATINRGGGSTNYADSVKGRFTISRDNAKNTVYLQMNSRKPEDTAVYYCARVNAAVGYYYRYEYWGHGTQVTVSS	high polyreactivity
QVQLVESWGGLVQAGGSLRLSCAASGSTFYRYAMGWYRQAPGKERELVAAISRSGGNTFYADSVKGRFTISRDNAKNTVYLQMNSLKQEDTAVYYCAAEAHLACYYRYYGGYGYDYWGQGTQVTVSW	high polyreactivity
QVQLVESWGGLVQAGGSLRLSCAASGSTITAKAMGWYRQAPGKERELVAAITKSGGDTYYADSVKGRFTISRDNAKNTVYLQMNSLKPEDTAVYYCAARIRPYAYRSLYGYWGQGTQVTVSS	low polyreactivity
QVQLVESWGGLVQAGGSLRLSCAASGSTMRYYAMGWYRQAPGKERELVAAISSRGGRTYYSDSVKGRFTISRDNAKNTVYLQMNSLKPEDTAVYYCAARARERYYWGQGNQVTVSS	high polyreactivity
QVQLVESWGGLVQAGGSLRLSCADSGRTFTVNAMGWYRQAPGKETEFVAAISGRSGRTSYADSVKGRFTISRDNAKNTVYLQMNCLKPEDTAVYYCNASGGYSTGSRYDYWGQGTQVTVSS	high polyreactivity
QVQLVESWGGLVQAGGSLRLSCADSGSIFGYYAMGWSRHAPGKETELVAAISSGGRTDYADSVKGRFTISRDNAKNTVYLQMNSRKQEDTAVYYCAALQRTGPYAGSSGYWGQGTQVTVSS	high polyreactivity
QVQLVESWGGLVQAGGSLRLSCVPPDSSSLTILWDGIDRRLGKKGSWLPVLTSRGVGTYYADSVKGRFTNSRDNAKNTFYLQMNSMKPEDSAVYYCNARYEVFYRYDYWGHGTQVTVSS	low polyreactivity
QVQLVESWGGLVQAGGSLRLTCAASGRILWFYSMGWYRQAPGKERELVAAISSSSGRTYYADSVKGRYTISRDNAKNTVSLQMNSLKPEDTAVYYCAATHAVARPLEYDYWGQGTQVTVSS	low polyreactivity
QVQLVESWGGLVQAGGTLRLSCAASGGIFIDYTMGWYRQAPGKERELVAAITRGGSTYYADSVKGRFTISRDNAKNTVYLEMNSLIAEDTAVYYCAARANSPVGHNRFGYWGQGTQVTVSS	low polyreactivity
QVQLVESWGGLVQAGGTLRLSCAASGRILYLNAMGWNRQAPGKEREFVAAISKSGGSTYYADSVKGRFTISRDNAMNSVYLQMNSLKPEDTAVYYCATRYRSAEYDFWGQGTQVTVSS	low polyreactivity
QVQLVESWGGLVQAGLSLRLSCAASGIMGWYRQAPGKERELVDAITYTGDSTFYADSVKGRFTISRDNPKNTVYVQINSLKAEDTAVYDCATKYGTSNWYNTYYYWGQGTQVTVSS	low polyreactivity
QVQLVESWGGVVQAGVSLRLSCAASGINFYSYAMGWYRQAPGKERELVAAISNNGGSTYADSVKGRFTISRDNAKNTVYLQMNSLKPEDTAVYYCAADPTGGVGFDGYYWGQGTQVSVSS	low polyreactivity
QVQLVESWGRLVQAGGSLRLTCAASGFIFSSYAMGWYRQAPGKERELVAAISQSGGRTYYADSVKGRFTISRDNAKNTVYLQMNSLKPEDTAVYYCNTLYTIGAVYYWGQGTQVTVSS	high polyreactivity
QVQLVESWGVLVQAGGSLRLSCAASGSIIVNYDMGWYRQARGKERELVAAITWGGGRTYYADSVKRRFTISRDNAKNSVYLQMNSLKPEDTAVYYCAADFSWVINPYEYCGQGTQVTVSS	low polyreactivity
QVQLVETAAGLVKSGGSLPLSCAASGRIFKRYAMGWYRQAPGQARELVATINLSCGSTYYADSVKGRFTISRDNAKNTGYLQMNSRKPEDTAVYYCAYDAAGAPEGPYDYWGQGTQVTVSS	high polyreactivity
QVQLVETAGGIVQAGGSLRLSCAASGRTNKYYAMGWYRQAPGKEREWVAVISWSGGSTYYADSVKGRFTISRDNAKNTVYLQMNSLKPEETAVYYCAARKRAQQGTRDHDYWGQGTQVTVSS	high polyreactivity
QVQLVETGAGLVQAGGSLRLSCAASGRTFDDNAMGWSRQATGEVRELVAAISSTGSTNYADSVKGRFTISRDNAKNTVYFQMNSLKPEDTAVYYCNTDRGHERAFYYWGQGTQVTVSS	low polyreactivity

Sequence	polyreactivity (PSR sort gate)
QVQLVETGGCLVQAGGSLRLSCAASGSTFYLYAMGWNRQAPGKETDLVASISQSGGSTIYADSVKGRFTISRDNAKNTVYLHMNSLKPEDTAVYYFAAGAGYFRYPRSGVWYVTLYDYWGEGTQVTVSS	high polyreactivity
QVQLVETGGGIVQAGGRLRLTCAASGSSFYSYAMGWYRQAPGKEMELVAAITTSGGNTLYADSVKGRFTISRDNAKNTVDLQMNSLKPEDTADYYCAADVFRGGDYEYDYWGQGTQVTVSS	low polyreactivity
QVQLVETGGGIVQAGGSLRLSCAASGITFQSNTMGWYRQSPGKERELVAAITWTGGRTYYADSVKGRFTISRDNAKNTVYLQMNSLTPEDTAVYYCNADGYAICYNGKLDYWGQGTQVTVSS	high polyreactivity
QVQLVETGGGLVHAGGSLRLSCAASGSIFQGHAMGWYRQAPGKERELVAAISRNGGRTYYADSVKGRFTISRDNAKNTVYLQMNSLKPEDTAVYYCAAYHNVEYDYWGQGTQVTVSS	high polyreactivity
QVQLVETGGGLVHAGVSLRLSCAASGSILSLNAMGWYRQAPGKERELVAVISNCGGSTYYADSVKGRFTISRDNAKNTVYFQMKSLNPEDTAVYYCAVALKYQRRYYYWGQGTQVTVSS	high polyreactivity
QVQLVETGGGLVQAGCSLRLSCASSGFIFVRNAMGRYRQAPGIERELVATINSGGGTNYADSVKWRFTISRDNAKNSVYFQMNSLKPDDTAVYYCAAGQTSPERYGLGYWGQGSQVTVSS	low polyreactivity
QVQLVETGGGLVQAGGSLRISCAASGFTFSSYVMGWYRQAPGKERELVAAITRGGGSTYYADSVKGRFTISRDNAKNTVYLQMNRLKPEDTAVYYCAARGWRYSYTSVLFDYCGQGTQVTVSS	high polyreactivity
QVQLVETGGGLVQAGGSLRISCAASGIIFRNYAKGWYTQAPGKERELVADISWSGGTTYYADSVKGRFTISRDNEKHTVYLQMNSLKPEDTAVYYCAASSYRRQYGYWGQGTQVTVSS	high polyreactivity
QVQLVETGGGLVQAGGSLRLRCAASGSIFVPYTMGWYRQAPGKERELVASISYSGGTTYYADSEKGRFTISRDNAKNTVYLQMNSLKPEDTAVYYCAADWDESYSYRRYRHYDYWGQGTQLTVSS	low polyreactivity
QVQLVETGGGLVQAGGSLRLSCAASARIFLGYTMGWYRKAPGKEMELVASITWSGGSTYYADSVKGRFTISRDNAKNTVYLQMNRLKPDVTAVYYCNAVYWVARGRYDYWGQGTQVTVSS	high polyreactivity
QVQLVETGGGLVQAGGSLRLSCAASGFIFAYNAMGWYRQAPGKERELVAAISWSGGSTYYADSVKGRFTISRDNAKITVYLQMNCLKPEDTAVYYCNAVSYFGARYDYWGQGTQVTVSS	high polyreactivity
QVQLVETGGGLVQAGGSLRLSCAASGFIFSTYAMGWSRQAPGKERELVAAISWSGGRTNYADSVKGRFTISRDHAKNTVYLQMNSLKPEDTAVYYCAVGGERGARIGSNHRGSRYDYWGQGTQVTVSS	high polyreactivity
QVQLVETGGGLVQAGGSLRLSCAASGFTFGANVMGWYRPAPGKESELVAGITRSGDSTYYADSVKGRFTISRDNAKNTVYLQMNILKPEDTAVYYCAADVYDGEYILDYDYWGQGTQVTVSS	low polyreactivity
QVQLVETGGGLVQAGGSLRLSCAASGFTFKLYAMGWYRQAPGKERVLVAAISSSGGRTYYADSVKGRFTISRDNAKNTVYLQMNSLKPEDTAVYYCNAVRTVNDYHYDYWGQGTQVTVSS	high polyreactivity
QVQLVETGGGLVQAGGSLRLSCAASGFTFRRYTMGWYRQAPGKERELVAAISGRGGRTYYADSVKGRFTISRDNAKNTVDLQMNSLKPEDTAVYYCAADTPYCQSSKYDYWGQGNQVTVSS	high polyreactivity
QVQLVETGGGLVQAGGSLRLSCAASGFTFTVYATGWYRQAPGKERELVAAIRWSGGSTSYADSVKRRFTISRDNAKNTVYLQMNSLKPEDTAVYYCNARISDAHYQSNYFLVLYDYWGQGTQVTVSS	low polyreactivity
QVQLVETGGGLVQAGGSLRLSCAASGFTFYGYAMGWYRQAPGKERELVAAISSSGGRTYYADSVKGRFTISRDNAKNTVYLQMNSLKPEDTAVYYCAVDYYGKVGDDYLGQGTQVTVSS	low polyreactivity
QVQLVETGGGLVQAGGSLRLSCAASGFTYRRYAMGWYRQAPGKERELVAAINWNGDSTYYADSVKGRFTISRDNAKNTVYLQMNSLKPEDTAVYYCNAGWYGGRYSKFDYWGQGTQVTVSS	high polyreactivity
QVQLVETGGGLVQAGGSLRLSCAASGGIFGRNAMGWYRQAPGKERELVASISKSGGSTYYADSVKGRFTISRDNAKNTVYLQMNSLKPEDTAVYYCAARYSYFNWDNYYWGQGTQVTVSS	high polyreactivity
QVQLVETGGGLVQAGGSLRLSCAASGGIFSYAMVWYRQAPGKEMELVADINSDGSTTYADSVKGRFTISRDNAKNTVYLQMNRLKPEDTAVYFCAVDVSVNWPLLERYEYWGQGSQVTVSS	low polyreactivity
QVQLVETGGGLVQAGGSLRLSCAASGIIFREYAMGWYRQAPGKEMELVAAITRSGGSTNYADSVKGRFTISRDNAKNTVYLLMNSLKPEDTAVYYCASDYQRNDFRWYDYWGQGTLVTVSS	low polyreactivity
